Source: patent US20130081152

Test system: T1, His-tagged recombinant PbGDPS_SSU (expressed in E. coli from pET15b)
T1 sequence: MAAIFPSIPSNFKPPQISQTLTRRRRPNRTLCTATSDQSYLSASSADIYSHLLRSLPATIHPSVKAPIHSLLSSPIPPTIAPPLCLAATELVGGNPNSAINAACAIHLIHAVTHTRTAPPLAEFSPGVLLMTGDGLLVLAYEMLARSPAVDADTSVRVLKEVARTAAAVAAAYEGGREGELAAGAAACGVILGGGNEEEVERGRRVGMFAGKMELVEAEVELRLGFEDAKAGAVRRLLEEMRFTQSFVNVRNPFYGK

## His-tagged recombinant PbGDPS_LSU (truncated, expressed in E. coli from pBAD202/D-TOPO)
  prenyltransferase activity: higher prenyltransferase activity than either PbGDPS_LSU or PbGDPS_SSU alone
